Assay results: article PMC9120130

Target: Human ACE2-hIgG1Fc (human) (UniProt Q9BYF1)
Assay: SPR

Chain of Human ACE2-hIgG1Fc (human) (Q9BYF1 18-740): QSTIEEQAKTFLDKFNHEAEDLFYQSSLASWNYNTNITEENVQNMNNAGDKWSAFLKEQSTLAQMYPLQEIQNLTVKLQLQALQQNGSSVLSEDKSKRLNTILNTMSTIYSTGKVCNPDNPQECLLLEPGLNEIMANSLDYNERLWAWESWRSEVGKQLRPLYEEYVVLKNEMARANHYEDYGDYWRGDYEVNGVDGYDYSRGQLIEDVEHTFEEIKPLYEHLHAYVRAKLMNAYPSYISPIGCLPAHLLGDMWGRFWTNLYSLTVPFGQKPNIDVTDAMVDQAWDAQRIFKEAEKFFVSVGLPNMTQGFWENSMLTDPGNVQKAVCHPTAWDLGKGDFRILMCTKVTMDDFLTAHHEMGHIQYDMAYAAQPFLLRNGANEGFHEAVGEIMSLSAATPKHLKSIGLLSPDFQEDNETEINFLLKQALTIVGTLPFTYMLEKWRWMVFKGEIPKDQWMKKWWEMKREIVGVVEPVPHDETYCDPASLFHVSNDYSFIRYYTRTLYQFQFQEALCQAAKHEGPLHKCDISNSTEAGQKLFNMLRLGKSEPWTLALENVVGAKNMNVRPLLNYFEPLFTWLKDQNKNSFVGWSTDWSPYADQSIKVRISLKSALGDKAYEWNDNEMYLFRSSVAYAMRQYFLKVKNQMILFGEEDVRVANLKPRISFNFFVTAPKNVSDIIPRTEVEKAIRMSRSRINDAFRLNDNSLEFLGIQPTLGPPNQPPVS

## Wuhan RBD
  Kd: 7.3 nM
  koff: 0.0051 s⁻¹
